The supplement of paper PMC7877785
± gives the uncertainty stated by the source.

Assay: self-splicing fitness, log relative to wild type (ln ratio); higher = more splicing; Tetrahymena group I intron in knt gene, E. coli kanamycin selection, DiMSum; sequences stand for … in CUCUCU…GGAGGGAAAAGUUAUCAGGCAUGCACCUGGUAGCUAGUCUUUAAACCAAUAGAUUGCAUCGGUUUAAAAGGCAAGACCGUCAAAUUGCGGGAAAGGGGUCAACAGCCGUUCAGUACCAAGUCUCAGGGGAAACUUUGAGAUGGCCUUGCAAAGGGUAUGGUAAUAAGCUGACGGACAUGGUCCUAACCACGCAGCCAAGUCCUAAGUCAACAGAUCUUCUGUUGAUAUGGAUGCAGUUCACAGACUAAAUGUCGGUCGGGGAAGAUGUAUUCUUCUCAUAAGAUAUAGUCGGACCUCUCCUUAAUGGGAGCUAGCGGAUGAAGUGAUGCAACACUGGAGCCGCUGGGAACUAAUUUGUAUGCGAAAGUAUAUUGAUUAGUUUUGGAGUACUCGUGGUCG
How it was run: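 Six replicate transformations of E. coli BL21(DE3) with a pET-22b(+) library were grown overnight at 37°C or 30°C. The library randomised all eight P1ex-region intron nucleotides, the intron lying in the knt kanamycin-resistance gene, and plates were LB agar with or without 25 μg/mL kanamycin plus 100 μg/mL carbenicillin, 50 μM IPTG and 0.2% rhamnose. Pooled colonies were amplicon-sequenced on an Illumina HiSeq 2500, and fitness is the DiMSum error-weighted combination of wild-type-normalised replicate fold changes, kanamycin versus none.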

Row | Sequence | self-splicing fitness (ln) (30 °C) | self-splicing fitness (ln) (37 °C)
1 | UUACAGCAAUAUUACGGUUC | -1.97 ± 0.1 | -1.32 ± 0.11
2 | UGUUAGCAAUAUUACGUUAG | -0.971 ± 0.12 | -1.26 ± 0.12
3 | GCACAGCAAUAUUACGAGCA | -1.55 ± 0.11 | -0.832 ± 0.12
4 | CUUGAGCAAUAUUACGAAAG | -2.3 ± 0.25 | -3.32 ± 0.46
5 | GACCAGCAAUAUUACGCAGG | -3.82 ± 0.21 | -2.49 ± 0.13
6 | UCUUAGCAAUAUUACGUCGG | -0.815 ± 0.21 | -0.0675 ± 0.2
7 | CGAUAGCAAUAUUACGCCCU | -0.983 ± 0.2 | 0.695 ± 0.25
8 | ACGAAGCAAUAUUACGGGAU | -3.47 ± 0.13 | -1.8 ± 0.14
9 | GGACAGCAAUAUUACGAAAG | -3.73 ± 0.33 | -2.88 ± 0.43
10 | CGGAAGCAAUAUUACGUAGG | -0.48 ± 0.078 | -1.38 ± 0.12
11 | GUUGAGCAAUAUUACGUCGC | -2.1 ± 0.35 | -1.17 ± 0.29
12 | CGCCAGCAAUAUUACGGUCA | -0.14 ± 0.066 | 0.542 ± 0.092
13 | AUUGAGCAAUAUUACGGACC | -3.26 ± 0.48 | –
14 | CGAAAGCAAUAUUACGCGGA | -3.29 ± 0.26 | -1.83 ± 0.17
15 | AAUAAGCAAUAUUACGCAUU | -2.97 ± 0.21 | -2.56 ± 0.28
16 | GCUCAGCAAUAUUACGCAAU | -1.02 ± 0.078 | 0.487 ± 0.11
17 | GCGAAGCAAUAUUACGAGGA | – | -1.58 ± 0.31
18 | CCAUAGCAAUAUUACGUAAA | -4.17 ± 0.2 | -3.03 ± 0.32
19 | AUUGAGCAAUAUUACGGUCU | -2.72 ± 0.15 | -2.56 ± 0.25
20 | GCAAAGCAAUAUUACGUCAG | -3.89 ± 0.29 | -1.56 ± 0.16

Row | Sequence | self-splicing fitness (ln) (30 °C) | self-splicing fitness (ln) (37 °C)
21 | GCGCAGCAAUAUUACGCGCA | -4.09 ± 0.32 | 0.322 ± 0.13
22 | ACUCAGCAAUAUUACGCCGC | -2.78 ± 0.28 | -1.78 ± 0.43
23 | GGUAAGCAAUAUUACGGACG | 0.0239 ± 0.12 | 0.484 ± 0.15
24 | UUCUAGCAAUAUUACGCCGG | – | -2.05 ± 0.37
25 | UCGGAGCAAUAUUACGGUGA | -1.82 ± 0.27 | -1.05 ± 0.2
26 | CGCUAGCAAUAUUACGGACA | -0.438 ± 0.14 | -0.65 ± 0.13
27 | AUCAAGCAAUAUUACGCACA | -0.256 ± 0.066 | -0.0877 ± 0.076
28 | GAACAGCAAUAUUACGGAAA | -2.42 ± 0.16 | -1.12 ± 0.14
29 | GACGAGCAAUAUUACGACAA | – | -1.24 ± 0.24
30 | ACGAAGCAAUAUUACGAGUA | -3.49 ± 0.21 | -2.73 ± 0.17
31 | AUAUAGCAAUAUUACGGUGC | -2.77 ± 0.38 | -1.94 ± 0.27
32 | CACCAGCAAUAUUACGCUCC | -3.91 ± 0.21 | -2.11 ± 0.33
33 | UUUAAGCAAUAUUACGAAAC | – | -1.01 ± 0.39
34 | GAGAAGCAAUAUUACGUACG | -1.42 ± 0.1 | -0.572 ± 0.12
35 | AUAAAGCAAUAUUACGGUAG | -2.82 ± 0.1 | -1.74 ± 0.12
36 | CCAUAGCAAUAUUACGGAUC | -1.97 ± 0.41 | -1.72 ± 0.32
37 | GAUGAGCAAUAUUACGAGUG | -3.06 ± 0.17 | -0.833 ± 0.18
38 | CUGAAGCAAUAUUACGCUCA | -3.73 ± 0.37 | -0.356 ± 0.22
39 | GCGCAGCAAUAUUACGGAAU | -1.12 ± 0.13 | -0.337 ± 0.15
